The text below walks through data of patent US20130236467A1 (published 2013).

The chains are these.
B1: DT02-K-044-077 in Pascolizumab-(GSTVAAPS)3-T mAb-dAb format (bispecific antibody, part only; not given: Pascolizumab chains and linker, not shown: another chain or arm of the molecule; small tags and cut ends)
dAb: DIQMTQSPSSLSASVGDRVTITCRASQWIGPELAWYQQKPGKAPKLLIYHGSILQSGVPSRFSGSGSGTDFTLTISSLQPEDFATYYCQQYMYYPHTFGQGTKVEIKR
B2: DT02-K-044-235 in Pascolizumab-(GSTVAAPS)3-T mAb-dAb format (bispecific antibody, part only; not given: pascolizumab chains and linker, not shown: another chain or arm of the molecule; small tags and cut ends)
dAb: DIQMTQSPSSLSASVGDRVTITCRASQWIGPELSWYQQKPGKAPKLLIYHGSILQSGVPSRFSGSGSGTDFTLTISSLQPEDFATYYCQQYMYYPITFGQGTKVEIKR
B3: DT02-K-044-247 in Pascolizumab-(GSTVAAPS)3-T mAb-dAb format (bispecific antibody, part only; not given: pascolizumab chains and linker, not shown: another chain or arm of the molecule; large carriers; small tags and cut ends)
dAb: DIQMTQSPSSLSASVGDRVTITCRASQWIGPELSWYQQKPGKAPKLLIYHGSILQSGVPSRFSGSGSGTDFTLTISSLQPEDFATYYCQQYMYYPYTFGQGTKVEIKR
B4: DT02-K-044-238 in Pascolizumab-(GSTVAAPS)3-T mAb-dAb format (bispecific antibody, part only; not given: Pascolizumab chains and linker, not shown: another chain or arm of the molecule; small tags and cut ends)
dAb: DIQMTQSPSSLSASVGDRVTITCRASQWIGPELSWYQQKPGKAPKLLIYHGSILQSGVPSRFSGSGSGTDFTLTISSLQPEDFATYYCQQYMYYPMTFGQGTKVEIKR
B5: DT02-K-044-230 in Pascolizumab-(GSTVAAPS)3-T mAb-dAb format (bispecific antibody, part only; not given: pascolizumab chains and linker, not shown: another chain or arm of the molecule; small tags and cut ends)
dAb: DIQMTQSPSSLSASVGDRVTITCRASQWIGPELSWYQQKPGKAPKLLIYHGSILQSGVPSRFSGSGSGTDFTLTISSLQPEDFATYYCQQYMYYPCTFGQGTKVEIKR
B6: DT02-K-044-229 in Pascolizumab-(GSTVAAPS)3-T mAb-dAb format (bispecific antibody, part only; not given: pascolizumab chains and linker, not shown: another chain or arm of the molecule; small tags and cut ends)
dAb: DIQMTQSPSSLSASVGDRVTITCRASQWIGPELSWYQQKPGKAPKLLIYHGSILQSGVPSRFSGSGSGTDFTLTISSLQPEDFATYYCQQYMYYPATFGQGTKVEIKR
B7: DT02-K-044-088 in Pascolizumab-(GSTVAAPS)3-T mAb-dAb format (bispecific antibody, part only; not given: pascolizumab chains and linker, not shown: another chain or arm of the molecule; large carriers; small tags and cut ends)
dAb: DIQMTQSPSSLSASVGDRVTITCRASQWIGPELNWYQQKPGKAPKLLIYHGSILQSGVPSRFSGSGSGTDFTLTISSLQPEDFATYYCQQYMYYPHTFGQGTKVEIKR
B8: DT02-K-044-087 in Pascolizumab-(GSTVAAPS)3-T mAb-dAb format (bispecific antibody, part only; not given: pascolizumab chains and linker, not shown: another chain or arm of the molecule; large carriers; small tags and cut ends)
dAb: DIQMTQSPSSLSASVGDRVTITCRASQWIGPELMWYQQKPGKAPKLLIYHGSILQSGVPSRFSGSGSGTDFTLTISSLQPEDFATYYCQQYMYYPHTFGQGTKVEIKR
B9: DT02-K-044-095 in Pascolizumab-(GSTVAAPS)3-T mAb-dAb format (bispecific antibody, part only; not given: pascolizumab chains and linker, not shown: another chain or arm of the molecule; large carriers; small tags and cut ends)
dAb: DIQMTQSPSSLSASVGDRVTITCRASQWIGPELYWYQQKPGKAPKLLIYHGSILQSGVPSRFSGSGSGTDFTLTISSLQPEDFATYYCQQYMYYPHTFGQGTKVEIKR
B10: DT02-K-044-093 in Pascolizumab-(GSTVAAPS)3-T mAb-dAb format (bispecific antibody, part only; not given: Pascolizumab chains and linker, not shown: another chain or arm of the molecule; large carriers; small tags and cut ends)
dAb: DIQMTQSPSSLSASVGDRVTITCRASQWIGPELVWYQQKPGKAPKLLIYHGSILQSGVPSRFSGSGSGTDFTLTISSLQPEDFATYYCQQYMYYPHTFGQGTKVEIKR
B11: DT02-K-044-083 in Pascolizumab-(GSTVAAPS)3-T mAb-dAb format (bispecific antibody, part only; not given: pascolizumab heavy and light chains, not shown: another chain or arm of the molecule; small tags and cut ends)
dAb: DIQMTQSPSSLSASVGDRVTITCRASQWIGPELHWYQQKPGKAPKLLIYHGSILQSGVPSRFSGSGSGTDFTLTISSLQPEDFATYYCQQYMYYPHTFGQGTKVEIKR
B12: DT02-K-044-240 in Pascolizumab-(GSTVAAPS)3-T mAb-dAb format (bispecific antibody, part only; not given: pascolizumab chains and linker, not shown: another chain or arm of the molecule; large carriers; small tags and cut ends)
dAb: DIQMTQSPSSLSASVGDRVTITCRASQWIGPELSWYQQKPGKAPKLLIYHGSILQSGVPSRFSGSGSGTDFTLTISSLQPEDFATYYCQQYMYYPPTFGQGTKVEIKR
B13: DT02-K-044-092 in Pascolizumab-(GSTVAAPS)3-T mAb-dAb format (bispecific antibody, part only; not given: pascolizumab chains and linker, not shown: another chain or arm of the molecule; large carriers; small tags and cut ends)
dAb: DIQMTQSPSSLSASVGDRVTITCRASQWIGPELTWYQQKPGKAPKLLIYHGSILQSGVPSRFSGSGSGTDFTLTISSLQPEDFATYYCQQYMYYPHTFGQGTKVEIKR
B14: DT02-K-044-239 in Pascolizumab-(GSTVAAPS)3-T mAb-dAb format (bispecific antibody, part only; not given: Pascolizumab chains and linker, not shown: another chain or arm of the molecule; large carriers; small tags and cut ends)
dAb: DIQMTQSPSSLSASVGDRVTITCRASQWIGPELSWYQQKPGKAPKLLIYHGSILQSGVPSRFSGSGSGTDFTLTISSLQPEDFATYYCQQYMYYPNTFGQGTKVEIKR
B15: DT02-K-044-232 in Pascolizumab-(GSTVAAPS)3-T mAb-dAb format (bispecific antibody, part only; not given: pascolizumab chains and linker, not shown: another chain or arm of the molecule; small tags and cut ends)
dAb: DIQMTQSPSSLSASVGDRVTITCRASQWIGPELSWYQQKPGKAPKLLIYHGSILQSGVPSRFSGSGSGTDFTLTISSLQPEDFATYYCQQYMYYPETFGQGTKVEIKR
B16: DT02-K-044-090 in Pascolizumab-(GSTVAAPS)3-T mAb-dAb format (bispecific antibody, part only; not given: pascolizumab chains and linker, not shown: another chain or arm of the molecule; large carriers; small tags and cut ends)
dAb: DIQMTQSPSSLSASVGDRVTITCRASQWIGPELQWYQQKPGKAPKLLIYHGSILQSGVPSRFSGSGSGTDFTLTISSLQPEDFATYYCQQYMYYPHTFGQGTKVEIKR
B17: BPC 1856, anti-HGF S260116C12VL1 Chimera (antibody, V domains shown)
VH: QIQLRQSGAGLMKPGASVKLSCKATGYTFTGYWIEWVKQRPGHDLEWIGEILPGSGTTNYNEKFKGKATFTADTSSNTAYMQLSSLTTEDSAIYYCARGGYYYGSSYDSWGQGTLVTVSS
VL: DIVLTQSPASLAVSLGQRATISCRASESVSIHGTHLMHWYQQKPGQPPKLLIYAASNLESGVPARFSGSGSETDFTLNIHPVEEEDAATYFCQQSIEDPYTFGGGTKLEIKR
notes: also called chimeric mAb BPC1856

T1 sequence (P14210 32-728 limits assumed, form in doubt): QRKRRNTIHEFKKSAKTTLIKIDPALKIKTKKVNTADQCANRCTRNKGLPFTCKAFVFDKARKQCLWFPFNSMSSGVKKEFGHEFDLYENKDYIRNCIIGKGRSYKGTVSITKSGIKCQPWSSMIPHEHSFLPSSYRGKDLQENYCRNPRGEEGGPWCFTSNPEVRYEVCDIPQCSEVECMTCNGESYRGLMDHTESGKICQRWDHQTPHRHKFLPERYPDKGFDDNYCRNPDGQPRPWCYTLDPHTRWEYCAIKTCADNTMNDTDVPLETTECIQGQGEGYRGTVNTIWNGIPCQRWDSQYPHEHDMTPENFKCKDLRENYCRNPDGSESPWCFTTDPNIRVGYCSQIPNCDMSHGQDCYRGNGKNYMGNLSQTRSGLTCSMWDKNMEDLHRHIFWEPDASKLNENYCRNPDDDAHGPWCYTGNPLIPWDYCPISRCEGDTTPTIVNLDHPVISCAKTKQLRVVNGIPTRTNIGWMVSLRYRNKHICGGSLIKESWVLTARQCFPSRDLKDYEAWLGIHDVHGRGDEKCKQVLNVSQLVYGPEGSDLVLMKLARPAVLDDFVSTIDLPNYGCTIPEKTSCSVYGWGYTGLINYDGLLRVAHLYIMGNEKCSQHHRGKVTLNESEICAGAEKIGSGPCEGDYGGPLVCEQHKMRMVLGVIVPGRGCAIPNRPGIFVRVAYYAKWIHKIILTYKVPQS

The first test deals with recombinant human VEGF (hVEGF-165) (human) (UniProt P15692). Put plainly: Proteon SPR estimate, mAb-dAb in transfection supernatant.
Broadly, the Kd is a measure of binding affinity in units of concentration. On to B1, for which the Kd is 40 pM. On the same count and under the same terms, the figure for B2 is 4 pM. As for B3, the Kd was 18 pM.

For the molecule B4, the Kd is 44 pM. Consider B5, for which the Kd is 23 pM. For B6, the Kd is 2 pM. For B7, the Kd is 52 pM.

In the case of B8, the Kd was 5 pM. Regarding B9, the Kd is 6 pM. Same read-out and setting: the figure for B10 is 34 pM; for B11 it is 49 pM; for B12 it is 43 pM.

As to B13, the Kd was 3 pM. Still for that read-out and setting: the figure for B14 is 13 pM; for B15 it is 4 pM. As to B16, the Kd is 20 pM.

The target of the next test is human HGFδ5 (human) (UniProt P14210). Put plainly: Biacore SPR, antibody captured on anti-human IgG, HGF as analyte, 37 C, 1:1 model. For orientation: Surface plasmon resonance follows binding to a sensor surface in real time, without labels.
Chain of human HGFδ5 (human) (P14210 other isoform, or with tags, fused parts or gaps mutant): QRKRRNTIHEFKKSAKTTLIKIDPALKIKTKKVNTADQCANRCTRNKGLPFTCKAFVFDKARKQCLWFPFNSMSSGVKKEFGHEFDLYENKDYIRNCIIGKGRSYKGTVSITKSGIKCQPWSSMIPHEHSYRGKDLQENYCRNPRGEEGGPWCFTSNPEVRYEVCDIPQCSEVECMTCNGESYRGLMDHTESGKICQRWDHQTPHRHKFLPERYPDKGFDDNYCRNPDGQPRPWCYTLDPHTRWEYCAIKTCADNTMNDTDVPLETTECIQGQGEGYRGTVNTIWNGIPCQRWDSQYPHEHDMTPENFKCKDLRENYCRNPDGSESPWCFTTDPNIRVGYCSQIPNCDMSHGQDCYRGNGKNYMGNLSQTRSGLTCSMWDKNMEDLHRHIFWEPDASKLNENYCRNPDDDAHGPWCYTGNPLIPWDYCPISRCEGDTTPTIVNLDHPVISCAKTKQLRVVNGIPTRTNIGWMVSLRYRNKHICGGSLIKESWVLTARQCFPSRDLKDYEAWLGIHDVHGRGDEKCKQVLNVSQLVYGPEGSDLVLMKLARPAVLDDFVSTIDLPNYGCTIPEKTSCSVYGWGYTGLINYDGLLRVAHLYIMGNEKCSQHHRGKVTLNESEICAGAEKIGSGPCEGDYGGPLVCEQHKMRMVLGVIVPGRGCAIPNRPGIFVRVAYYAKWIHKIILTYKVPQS
A word on the koff: it is a measure of how fast the partners let go of each other. A higher koff goes with fast dissociation. By kon is commonly meant the rate constant with which the complex forms. As to B17, the Kd was 42 pM, the koff is 1.78e-05 s⁻¹ and the kon is 423000 M⁻¹ s⁻¹.

Another test concerns the target T1, Human HGFv1 (human, UniProt P14210 32-728).
T1 construct: Biotinylated in the bridging ELISA; also called HGF (fl); HGF full length
The description is as above.
Regarding B17, the Kd worked out at 34 pM, the koff came to 1.49e-05 s⁻¹ and the kon came to 434000 M⁻¹ s⁻¹.
